Test results reported in patent US20230416371A1 (Chugai, published 2023).

Columns and labels:
[1] = target: T1, human FcγRIIa H (allotype H131) extracellular domain (human, UniProt P12318 34-217); test: SPR Biacore 8K+; KD for FcγRIIb divided by KD for this FcγR
T1 construct: extracellular domain; also called hFcγRIIaH
T1 sequence (looked up): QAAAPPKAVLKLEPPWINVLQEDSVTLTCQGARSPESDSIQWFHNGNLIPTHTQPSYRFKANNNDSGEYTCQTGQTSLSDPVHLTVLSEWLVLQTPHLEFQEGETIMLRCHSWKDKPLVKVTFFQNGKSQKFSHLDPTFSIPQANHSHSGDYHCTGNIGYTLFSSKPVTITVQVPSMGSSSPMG
Experimental: (§1) The extracellular domains of FcγRs were produced by the method described in WO2014104165. The interaction between the produced antibodies and human FcγRs was analyzed using Biacore 8K+by the method below. For the running buffer, 50 mM Na-Phosphate, 150 mM NaCl, and 0.05% Tween20 (pH 7.4) was used, and measurement was performed at 25° C. The sensor chip used was a Series S SA chip (GE Healthcare) onto which CaptureSelect Human Fab-kappa Kinetics Biotin Conjugate (Thermo Fisher Scientific) was immobilized. An antibody of interest was captured onto this chip, and each FcγR diluted with the running buffer was allowed to interact with it. The chip was regenerated using 10 mM Glycine-HCl (pH 1.5), and repeatedly used to capture antibodies and perform measurement. The dissociation constants KD (mol/L) of each antibody for FcγRs were calculated using Biacore Insight Evaluation Software, with a steady state affinity model for the dissociation constant for FcγRIIb and a 1:1 Langmuir binding model for the dissociation constants for the other FcγRs (Table 2).

[2] = target: T2, human FcγRIIIa V (allotype V158) extracellular domain (human, UniProt P08637 17-208); test: SPR Biacore 8K+; KD of G1d divided by KD of this antibody
T2 construct: extracellular domain; also called hFcγRIIIaV
T2 sequence (P08637 17-208 F176V): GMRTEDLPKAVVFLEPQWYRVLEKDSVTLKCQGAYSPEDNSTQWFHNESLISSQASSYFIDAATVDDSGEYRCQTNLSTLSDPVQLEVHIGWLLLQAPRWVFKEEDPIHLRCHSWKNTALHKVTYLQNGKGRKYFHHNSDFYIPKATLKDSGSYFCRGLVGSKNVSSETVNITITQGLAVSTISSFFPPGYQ
Experimental: as §1

[3] = target: T3, human FcγRIIIa F (allotype F158) extracellular domain (human, UniProt P08637 17-208); test: SPR Biacore 8K+, 25 C, antibody captured, FcγR as analyte, 1:1 Langmuir model
T3 construct: extracellular domain; also called hFcγRIIIaF
T3 sequence (P08637 17-208): as the sequence (P08637 17-208 F176V) above, with V160F counted along it
Experimental: as §1

[4] = target: T1, human FcγRIIa H (allotype H131) …; test: as above
Experimental: as §1

[5] = target: T4, human FcγRIIb extracellular domain (human, UniProt P31994 43-217); test: SPR Biacore 8K+, 25 C, antibody captured, FcγR as analyte, steady state affinity model
T4 construct: extracellular domain; also called hFcγRIIb
T4 sequence (looked up): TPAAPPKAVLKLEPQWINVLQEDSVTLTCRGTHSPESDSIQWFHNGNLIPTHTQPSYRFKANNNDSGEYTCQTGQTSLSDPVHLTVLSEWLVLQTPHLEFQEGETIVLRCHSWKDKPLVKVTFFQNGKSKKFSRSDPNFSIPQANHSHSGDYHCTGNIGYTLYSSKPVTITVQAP
Experimental: as §1

[6] = target: T3, human FcγRIIIa F (allotype F158) …; test: SPR Biacore 8K+; KD of G1d divided by KD of this antibody
Experimental: as §1

[7] = target: T1, human FcγRIIa H (allotype H131) …; test: as above
Experimental: as §1

[8] = target: T4, human FcγRIIb extracellular domain; test: as above
Experimental: as §1

[9] = target: T2, human FcγRIIIa V (allotype V158) …; test: SPR Biacore 8K+, 25 C, antibody captured, FcγR as analyte, 1:1 Langmuir model
Experimental: as §1

[10] = target: hFcγRIIIaV on hFcγRIIIaV-expressing Jurkat cells (human, UniProt P08637 17-254); test: cell-based or functional assay
hFcγRIIIaV on hFcγRIIIaV-expressing Jurkat cells, sequence (P08637 17-254, form in doubt): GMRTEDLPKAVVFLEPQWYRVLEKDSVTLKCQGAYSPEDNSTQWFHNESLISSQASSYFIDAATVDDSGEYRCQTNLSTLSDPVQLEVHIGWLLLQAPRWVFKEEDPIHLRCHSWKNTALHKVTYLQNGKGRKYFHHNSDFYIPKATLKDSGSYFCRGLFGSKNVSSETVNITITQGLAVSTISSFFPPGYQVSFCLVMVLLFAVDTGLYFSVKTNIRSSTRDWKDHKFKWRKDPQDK

B1: EGL-G1d (H240-G1d/L73-k0) (antibody, human IgG1, kappa)
heavy: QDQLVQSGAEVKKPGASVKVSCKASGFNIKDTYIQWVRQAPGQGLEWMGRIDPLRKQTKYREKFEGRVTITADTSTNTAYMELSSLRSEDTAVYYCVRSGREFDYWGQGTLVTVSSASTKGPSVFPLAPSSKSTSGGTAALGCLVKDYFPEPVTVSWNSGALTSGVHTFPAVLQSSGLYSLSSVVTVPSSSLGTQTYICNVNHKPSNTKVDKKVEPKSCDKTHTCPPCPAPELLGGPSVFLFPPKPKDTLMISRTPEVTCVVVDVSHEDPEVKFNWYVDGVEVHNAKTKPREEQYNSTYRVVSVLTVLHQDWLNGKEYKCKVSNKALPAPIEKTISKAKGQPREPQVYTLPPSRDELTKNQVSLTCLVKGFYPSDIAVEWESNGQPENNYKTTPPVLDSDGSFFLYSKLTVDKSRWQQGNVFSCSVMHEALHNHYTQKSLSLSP
light: DIQMTQSPSSLSASVGDRVTITCRASQDIHKYIAWYQQKPGQAPRLLIQYTSTLQPGVPSRFSGSGSGTDYTFTISSLQPEDIATYYCLQYEQLRTFGGGTKVEIKRTVAAPSVFIFPPSDEQLKSGTASVVCLLNNFYPREAKVQWKVDNALQSGNSQESVTEQDSKDSTYSLSSTLTLSKADYEKHKVYACEVTHQGLSSPVTKSFNRGEC
notes: Anti-human Epiregulin antibody with human IgG1 constant region G1d (C-terminal Lys and Gly deleted); parent of all Fc variants; also called H240-Gld/L73-k0; anti-hEREG control antibody
Question: With B1 as the binder, how does the “A/I ratio (KD for FcγRIIb divided by KD for each FcγR)” value [1] read?
Answer: The value was 6.9.

B2: EGL-SDALIE (H240-Kn032/L73-k0//H240-H1032/L73-k0) (antibody, human IgG1, kappa)
heavy 1: QDQLVQSGAEVKKPGASVKVSCKASGFNIKDTYIQWVRQAPGQGLEWMGRIDPLRKQTKYREKFEGRVTITADTSTNTAYMELSSLRSEDTAVYYCVRSGREFDYWGQGTLVTVSSASTKGPSVFPLAPSSKSTSGGTAALGCLVKDYFPEPVTVSWNSGALTSGVHTFPAVLQSSGLYSLSSVVTVPSSSLGTQTYICNVNHKPSNTKVDKKVEPKSCDKTHTCPPCPAPELLGGPDVFLFPPKPKDTLMISRTPEVTCVVVDVSHEDPEVKFNWYVDGVEVHNAKTKPREEQYNSTYRVVSVLTVLHQDWLNGKEYKCKVSNKALPLPEEKTISKAKGQPREPQVCTLPPSRDELTKNQVSLWCLVKGFYPSDIAVEWESNGQPENNYKTTPPVLDSDGSFFLYSKLTVDKSRWQQGNVFSCSVMHEALHNHYTQKSLSLSP
heavy 2: QDQLVQSGAEVKKPGASVKVSCKASGFNIKDTYIQWVRQAPGQGLEWMGRIDPLRKQTKYREKFEGRVTITADTSTNTAYMELSSLRSEDTAVYYCVRSGREFDYWGQGTLVTVSSASTKGPSVFPLAPSSKSTSGGTAALGCLVKDYFPEPVTVSWNSGALTSGVHTFPAVLQSSGLYSLSSVVTVPSSSLGTQTYICNVNHKPSNTKVDKKVEPKSCDKTHTCPPCPAPELLGGPDVFLFPPKPKDTLMISRTPEVTCVVVDVSHEDPEVKFNWYVDGVEVHNAKTKPREEQYNSTYRVVSVLTVLHQDWLNGKEYKCKVSNKALPLPEEKTISKAKGQPREPQVYTLPPSRCELTKNQVSLSCAVKGFYPSDIAVEWESNGQPENNYKTTPPVLDSDGSFFLVSKLTVDKSRWQQGNVFSCSVMHEALHNHYTQKSLSLSP
light: DIQMTQSPSSLSASVGDRVTITCRASQDIHKYIAWYQQKPGQAPRLLIQYTSTLQPGVPSRFSGSGSGTDYTFTISSLQPEDIATYYCLQYEQLRTFGGGTKVEIKRTVAAPSVFIFPPSDEQLKSGTASVVCLLNNFYPREAKVQWKVDNALQSGNSQESVTEQDSKDSTYSLSSTLTLSKADYEKHKVYACEVTHQGLSSPVTKSFNRGEC
notes: Anti-human Epiregulin IgG1 with S239D/A330L/I332E in both CH2 domains and knobs-into-holes in CH3
Question: What does the source list for B2?
Answer: Relative value to KD between G1d and hFcγRs [2]: 36.6 times; Kd [3]: 26.5 nM

B3: EGL-GASDALIE (H240-GASDALIE/L73-k0) (antibody, human IgG1, kappa)
heavy: QDQLVQSGAEVKKPGASVKVSCKASGFNIKDTYIQWVRQAPGQGLEWMGRIDPLRKQTKYREKFEGRVTITADTSTNTAYMELSSLRSEDTAVYYCVRSGREFDYWGQGTLVTVSSASTKGPSVFPLAPSSKSTSGGTAALGCLVKDYFPEPVTVSWNSGALTSGVHTFPAVLQSSGLYSLSSVVTVPSSSLGTQTYICNVNHKPSNTKVDKKVEPKSCDKTHTCPPCPAPELLAGPDVFLFPPKPKDTLMISRTPEVTCVVVDVSHEDPEVKFNWYVDGVEVHNAKTKPREEQYNSTYRVVSVLTVLHQDWLNGKEYKCKVSNKALPLPEEKTISKAKGQPREPQVYTLPPSRDELTKNQVSLTCLVKGFYPSDIAVEWESNGQPENNYKTTPPVLDSDGSFFLYSKLTVDKSRWQQGNVFSCSVMHEALHNHYTQKSLSLSP
light: DIQMTQSPSSLSASVGDRVTITCRASQDIHKYIAWYQQKPGQAPRLLIQYTSTLQPGVPSRFSGSGSGTDYTFTISSLQPEDIATYYCLQYEQLRTFGGGTKVEIKRTVAAPSVFIFPPSDEQLKSGTASVVCLLNNFYPREAKVQWKVDNALQSGNSQESVTEQDSKDSTYSLSSTLTLSKADYEKHKVYACEVTHQGLSSPVTKSFNRGEC
notes: Anti-human Epiregulin IgG1 with symmetric G236A/S239D/A330L/I332E
Question: How did the Kd [4] turn out when B3 was run?
Answer: Its Kd is 152 nM.

B4: EGL-GASDIE (H240-Kn037/L73-k0//H240-H1036/L73-k0) (antibody, human IgG1, kappa)
heavy 1: QDQLVQSGAEVKKPGASVKVSCKASGFNIKDTYIQWVRQAPGQGLEWMGRIDPLRKQTKYREKFEGRVTITADTSTNTAYMELSSLRSEDTAVYYCVRSGREFDYWGQGTLVTVSSASTKGPSVFPLAPSSKSTSGGTAALGCLVKDYFPEPVTVSWNSGALTSGVHTFPAVLQSSGLYSLSSVVTVPSSSLGTQTYICNVNHKPSNTKVDKKVEPKSCDKTHTCPPCPAPELLAGPDVFLFPPKPKDTLMISRTPEVTCVVVDVSHEDPEVKFNWYVDGVEVHNAKTKPREEQYNSTYRVVSVLTVLHQDWLNGKEYKCKVSNKALPAPEEKTISKAKGQPREPQVCTLPPSRDELTKNQVSLWCLVKGFYPSDIAVEWESNGQPENNYKTTPPVLDSDGSFFLYSKLTVDKSRWQQGNVFSCSVMHEALHNHYTQKSLSLSP
heavy 2: QDQLVQSGAEVKKPGASVKVSCKASGFNIKDTYIQWVRQAPGQGLEWMGRIDPLRKQTKYREKFEGRVTITADTSTNTAYMELSSLRSEDTAVYYCVRSGREFDYWGQGTLVTVSSASTKGPSVFPLAPSSKSTSGGTAALGCLVKDYFPEPVTVSWNSGALTSGVHTFPAVLQSSGLYSLSSVVTVPSSSLGTQTYICNVNHKPSNTKVDKKVEPKSCDKTHTCPPCPAPELLAGPDVFLFPPKPKDTLMISRTPEVTCVVVDVSHEDPEVKFNWYVDGVEVHNAKTKPREEQYNSTYRVVSVLTVLHQDWLNGKEYKCKVSNKALPAPEEKTISKAKGQPREPQVYTLPPSRCELTKNQVSLSCAVKGFYPSDIAVEWESNGQPENNYKTTPPVLDSDGSFFLVSKLTVDKSRWQQGNVFSCSVMHEALHNHYTQKSLSLSP
light: DIQMTQSPSSLSASVGDRVTITCRASQDIHKYIAWYQQKPGQAPRLLIQYTSTLQPGVPSRFSGSGSGTDYTFTISSLQPEDIATYYCLQYEQLRTFGGGTKVEIKRTVAAPSVFIFPPSDEQLKSGTASVVCLLNNFYPREAKVQWKVDNALQSGNSQESVTEQDSKDSTYSLSSTLTLSKADYEKHKVYACEVTHQGLSSPVTKSFNRGEC
notes: Anti-human Epiregulin IgG1 with G236A/S239D/I332E in both CH2 domains and knobs-into-holes in CH3
Question: Which Kd [5] does the source give for B4 here?
Answer: Its Kd is 12.5 nM.

B5: EGL-ART10 (H240-Kn494/L73-k0//H240-HI514/L73-k0) (antibody, human IgG1, kappa)
heavy 1: QDQLVQSGAEVKKPGASVKVSCKASGFNIKDTYIQWVRQAPGQGLEWMGRIDPLRKQTKYREKFEGRVTITADTSTNTAYMELSSLRSEDTAVYYCVRSGREFDYWGQGTLVTVSSASTKGPSVFPLAPSSKSTSGGTAALGCLVKDYFPEPVTVSWNSGALTSGVHTFPAVLQSSGLYSLSSVVTVPSSSLGTQTYICNVNHKPSNTKVDKKVEPKSCDKTHTCPPCPAPEFQWGPMVFLFPPKPKDVLMISRTPEVTCVVVDVSDEEPEVKFNWYVDGVEVHNAKTKPREEQYNATYRVVSVLPVLHQDWLNGKEYKCKVSNKALPAPEEKTISKAKGQPREPQVCTLPPSRDELTKNQVSLWCLVKGFYPSDIAVEWESNGQPENNYKTTPPVLDSDGSFFLYSKLTVDKSRWQQGNVFSCSVMHEALHNHYTQKSLSLSP
heavy 2: QDQLVQSGAEVKKPGASVKVSCKASGFNIKDTYIQWVRQAPGQGLEWMGRIDPLRKQTKYREKFEGRVTITADTSTNTAYMELSSLRSEDTAVYYCVRSGREFDYWGQGTLVTVSSASTKGPSVFPLAPSSKSTSGGTAALGCLVKDYFPEPVTVSWNSGALTSGVHTFPAVLQSSGLYSLSSVVTVPSSSLGTQTYICNVNHKPSNTKVDKKVEPKSCDKTHTCPPCPAPELLGGPSVFLFPPKPKDVLMISRTPEVTCVVVDVSHEEPEVKFNWYVDGVEVHNAKTKPREEQYNATYRVVSVLPVLHQDWLNGKEYKCKVSNDALPAPEEETISKAKGQPREPQVYTLPPSRCELTKNQVSLSCAVKGFYPSDIAVEWESNGQPENNYKTTPPVLDSDGSFFLVSKLTVDKSRWQQGNVFSCSVMHEALHNHYTQKSLSLSP
light: DIQMTQSPSSLSASVGDRVTITCRASQDIHKYIAWYQQKPGQAPRLLIQYTSTLQPGVPSRFSGSGSGTDYTFTISSLQPEDIATYYCLQYEQLRTFGGGTKVEIKRTVAAPSVFIFPPSDEQLKSGTASVVCLLNNFYPREAKVQWKVDNALQSGNSQESVTEQDSKDSTYSLSSTLTLSKADYEKHKVYACEVTHQGLSSPVTKSFNRGEC
notes: Anti-human Epiregulin IgG1 with heterodimeric (knobs-into-holes) Fc variant
Question: Which “Relative value to KD between G1d and hFcγRs” value (shortened to “Relative value”) [6] does the source give for B5 here?
Answer: Its value is 1270 times.

B6: EGL-afucosyl (H240-G1d/L73-k_glycomab) (antibody)
heavy: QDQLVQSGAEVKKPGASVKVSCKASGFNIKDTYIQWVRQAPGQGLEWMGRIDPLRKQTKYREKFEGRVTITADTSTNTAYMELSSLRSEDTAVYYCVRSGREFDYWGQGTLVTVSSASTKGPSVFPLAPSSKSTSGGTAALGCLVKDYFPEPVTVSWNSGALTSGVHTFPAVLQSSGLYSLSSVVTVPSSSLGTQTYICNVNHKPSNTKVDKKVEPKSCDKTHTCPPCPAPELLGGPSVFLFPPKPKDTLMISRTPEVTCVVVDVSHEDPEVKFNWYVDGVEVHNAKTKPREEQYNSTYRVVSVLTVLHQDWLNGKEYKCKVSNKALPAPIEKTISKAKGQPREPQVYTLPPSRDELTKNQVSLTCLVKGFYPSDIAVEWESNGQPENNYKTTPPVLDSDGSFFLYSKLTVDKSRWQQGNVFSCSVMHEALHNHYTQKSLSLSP
VL: DIQMTQSPSSLSASVGDRVTITCRASQDIHKYIAWYQQKPGQAPRLLIQYTSTLQPGVPSRFSGSGSGTDYTFTISSLQPEDIATYYCLQYEQLRTFGGGTKVEIK
modifications: afucosylated (fucose-deficient sugar chain) ; Afucosylated (fucose-deficient) N-glycan at Asn297 (EU) of the heavy chain; the letters cannot carry it.
notes: Same heavy chain as EGL-G1d, produced in cells that give fucose-deficient antibodies; also called afucosylated antibody
Question: Which “Relative value” value [7] does the source give for B6 here?
Answer: Its value is 1.1 times.

Question: And the “Relative value” value [8]?
Answer: Its value is 1.8 times.

Question: And the Kd [5]?
Answer: Its Kd is 5850 nM.

Question: And the Kd [9]?
Answer: Its Kd is 18 nM.

Question: What about the “EC50 value of hFcγRIIIaV-mediated reporter gene induction activity” value [10] of the same binder?
Answer: Its value is 5.16 ng/mL.
